This passage reports Kd, koff and kon results from patent publication US20220119534A1 (DRAGONFLY THERAPEUTICS, published 2022).

Values joined by “and” are separate entries in the source; they are usually repeats but may differ in a detail not shown here. Equal entries are not always repeated.

Test [1] has as its target T1, recombinant human CD32a H131 (human, UniProt P12318 36-218, limits assumed, biotinylated).
T1 construct: also called FcγRIIa H131
T1 sequence (looked up): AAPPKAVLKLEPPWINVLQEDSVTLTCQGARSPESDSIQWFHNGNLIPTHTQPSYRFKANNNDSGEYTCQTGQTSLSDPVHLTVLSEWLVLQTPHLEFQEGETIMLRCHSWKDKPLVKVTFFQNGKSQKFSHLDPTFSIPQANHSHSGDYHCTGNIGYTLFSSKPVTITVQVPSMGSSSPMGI
Nature of the test: SPR 25C, steady state, average.
Experimental: (§1) Human and cyno CD64, high and low affinity alleles of CD16a (V158 and F158, respectively), two alleles of CD32a (H131 and R131), CD16b, CD32b and cynomolgus CD16 were captured via biotin on a primed Biacore chip, prepared according to the manufacturer's instructions.
For no-signal reference, a 0 nM blank cycle at the start of each concentration series and receptor free chip surface were used. Each experimental cycle included association, dissociation and regeneration steps. All steps were executed at a flow rate of 30 μL/min and at 25° C.

Test [2] deals with T2, recombinant human CD16a V158 (human, UniProt P08637 17-208, biotinylated).
T2 construct: also called FcγRIIIa V158; hCD16aV
T2 sequence (P08637 17-208 F176V limits assumed): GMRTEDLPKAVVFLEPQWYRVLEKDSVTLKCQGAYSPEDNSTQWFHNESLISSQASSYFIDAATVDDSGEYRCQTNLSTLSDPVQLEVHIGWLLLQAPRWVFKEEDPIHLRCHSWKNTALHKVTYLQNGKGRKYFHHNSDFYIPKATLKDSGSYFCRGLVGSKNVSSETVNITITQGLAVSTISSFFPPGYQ
Kind of test: SPR 25C, kinetic fit.

Test [3] concerns the target T3, recombinant cynomolgus FcRn (cynomolgus monkey, UniProt Q8SPV9 24-297; Q8SPW0 21-119).
T3 construct: also called cFcRn; cyno FcRn
Kind of test: SPR 25C, pH 6.0, steady state; pH 6.0; third replicate.
Experimental: Each FcRn binding experiment consisted of multiple cycles utilizing varying concentrations of analytes. […] As no-signal, negative controls, a 0 nM blank cycle was placed at the start of each concentration series, and a blank amine coupling modified chip surface lacking FcRn were used. Each experimental cycle included association, dissociation, and regeneration steps. The association step consisted of 60 sec analyte injection and was followed by a 60 sec dissociation step. Surface regeneration (60 sec injection of HBS-EP+ buffer, pH 7.4) completed each kinetic cycle. All steps were executed at a flow rate of 30 μL/min and at 25° C. MBS-EP+ buffer, pH 6.0 was used as a running buffer. The data were fitted to a steady state affinity model with Biacore Insight evaluation software. Chi² (calculated by the software) related to the calculated Rₘₐₓ was used to assess goodness of the fit.

Another test deals with T4, recombinant human FcRn (human, UniProt P55899 24-297; P61769 21-119).
T4 construct: also called hFcRn
T4 sequence (P55899 24-297 limits assumed, chain 1 of 2): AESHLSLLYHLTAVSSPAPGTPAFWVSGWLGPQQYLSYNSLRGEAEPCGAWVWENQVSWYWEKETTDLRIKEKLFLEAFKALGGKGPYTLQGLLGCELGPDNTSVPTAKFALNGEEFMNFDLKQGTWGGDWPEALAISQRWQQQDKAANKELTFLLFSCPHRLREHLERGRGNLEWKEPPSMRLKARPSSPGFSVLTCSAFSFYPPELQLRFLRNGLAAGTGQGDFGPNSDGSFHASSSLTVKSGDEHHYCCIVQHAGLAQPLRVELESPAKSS
T4 sequence (P61769 21-119 limits assumed, chain 2 of 2): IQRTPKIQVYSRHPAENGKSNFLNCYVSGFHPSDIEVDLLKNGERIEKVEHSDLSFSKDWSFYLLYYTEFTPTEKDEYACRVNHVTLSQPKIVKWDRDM
Nature of the test: SPR 25C, pH 6.0, steady state; pH 6.0; first replicate.

The target in test [4] is T5, recombinant cynomolgus CD16 (cynomolgus monkey, UniProt Q8SPW2 17-208, biotinylated).
T5 construct: also called cFcγRIII; cyno CD16
T5 sequence (Q8SPW2 17-208 limits assumed): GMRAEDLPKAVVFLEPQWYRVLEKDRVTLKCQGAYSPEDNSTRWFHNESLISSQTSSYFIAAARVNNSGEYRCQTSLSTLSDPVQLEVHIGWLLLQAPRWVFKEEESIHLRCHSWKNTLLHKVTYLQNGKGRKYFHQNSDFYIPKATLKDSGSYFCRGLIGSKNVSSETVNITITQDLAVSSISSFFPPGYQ
Kind of test: SPR 25C, steady state, average.
Text: as §1

T3 sequence (Q8SPV9 24-297 limits assumed, chain 1 of 2): as the sequence (P55899 24-297 limits assumed, chain 1 of 2) above, with N39D, E44Q, G99S, S189G, S190N, L217M, S269T counted along it
T3 sequence (Q8SPW0 21-119 limits assumed, chain 2 of 2): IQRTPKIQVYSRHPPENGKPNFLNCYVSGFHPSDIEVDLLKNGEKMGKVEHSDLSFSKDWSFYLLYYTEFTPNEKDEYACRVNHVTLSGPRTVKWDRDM

B1: F3'-1602 TriNKET (other)
chain: QLQLQESGPGLVKPSETLSLTCTVSGFSLTNYGLHWIRQPPGKCLEWIGVIWSGGKTDYNPSLKSRVTISKDTSKNQFSLKLSSVQAADTAVYYCAKYDYDDSLDYWGQGTLVTVSSGGGGSGGGGSGGGGSGGGGSDIQMTQSPSSLSASVGDRVTITCHASQNINFWLSWYQQKPGKAPKLLIYEASNLHTGVPSRFSGSGSGTRFTLTISSLQPEDIATYYCQQSHSYPLTFGCGTKLEIKGSDKTHTCPPCPAPELLGGPSVFLFPPKPKDTLMISRTPEVTCVVVDVSHEDPEVKFNWYVDGVEVHNAKTKPREEQYNSTYRVVSVLTVLHQDWLNGKEYKCKVSNKALPAPIEKTISKAKGQPREPRVYTLPPCRDELTKNQVSLTCLVKGFYPSDIAVEWESNGQPENNYKTTPPVLVSDGSFTLYSKLTVDKSRWQQGNVFSCSVMHEALHNHYTQKSLSLSPG
heavy: EVQLVESGGGLVKPGGSLRLSCAASGFTFSSYSMNWVRQAPGKGLEWVSSISSSSSYIYYADSVKGRFTISRDNAKNSLYLQMNSLRAEDTAVYYCARGAPIGAAAGWFDPWGQGTLVTVSSASTKGPSVFPLAPSSKSTSGGTAALGCLVKDYFPEPVTVSWNSGALTSGVHTFPAVLQSSGLYSLSSVVTVPSSSLGTQTYICNVNHKPSNTKVDKKVEPKSCDKTHTCPPCPAPELLGGPSVFLFPPKPKDTLMISRTPEVTCVVVDVSHEDPEVKFNWYVDGVEVHNAKTKPREEQYNSTYRVVSVLTVLHQDWLNGKEYKCKVSNKALPAPIEKTISKAKGQPREPQVCTLPPSRDELTENQVSLTCLVKGFYPSDIAVEWESNGQPENNYKTTPPVLDSDGSFFLYSWLTVDKSRWQQGNVFSCSVMHEALHNHYTQKSLSLSPG
light: DIQMTQSPSSVSASVGDRVTITCRASQGISSWLAWYQQKPGKAPKLLIYAASSLQSGVPSRFSGSGSGTDFTLTISSLQPEDFATYYCQQGVSFPRTFGGGTKVEIKRTVAAPSVFIFPPSDEQLKSGTASVVCLLNNFYPREAKVQWKVDNALQSGNSQESVTEQDSKDSTYSLSSTLTLSKADYEKHKVYACEVTHQGLSSPVTKSFNRGEC
notes: CLEC12A scFv-Fc, NKG2D A49MI Fab-Fc, human IgG1 Fc; also called AB0237
With B1, the Kd (usually the free concentration of one partner at which half of the binding sites on the other are occupied at equilibrium, for simple one-to-one binding) in test [1] was 900 nM; in test [2] it was 234 nM and 235 nM and 243 nM and 241 nM; in test [3], 1400 nM; with recombinant human FcRn, 1300 nM; in test [4] it was 306 nM. Moreover, in test [2], the koff (in general, the first-order rate constant of dissociation) was 0.022 s⁻¹ and 0.023 s⁻¹. For the same molecule, the kon (commonly a measure of how fast the partners come together) in test [2] is 96000 M⁻¹ s⁻¹ and 95000 M⁻¹ s⁻¹ and 93000 M⁻¹ s⁻¹.
